For the assay, the target named is T1, recombinant fusion protein including mouse PD-1 and immunoglobulin Fc portion (mouse, UniProt Q02242 25-167, limits assumed).
T1 construct: also called mouse PD-1-Fc; not shown: immunoglobulin Fc portion
T1 sequence (looked up): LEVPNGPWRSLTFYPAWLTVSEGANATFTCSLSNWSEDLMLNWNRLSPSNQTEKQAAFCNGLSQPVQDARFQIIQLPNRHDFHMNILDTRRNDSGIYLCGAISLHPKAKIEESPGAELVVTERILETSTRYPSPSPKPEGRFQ
The experiment in a line: ELISA: mouse PD-1-Fc immobilized in wells; scFv from conditioned medium of conv./PD-1 and 7x19/PD-1 CAR-T cells captured; detected with anti-FLAG tag or anti-6xHis tag; signal observed for both (FIG. 15). As for the experimental part: Prior to using various CAR-T cells in experiments, the concentration of anti-mPD-1 scFv (also referred to PD-1scFv) was measured using two kinds of ELISA kit. Specifically, a conditioned medium of the untransduced T cells, the anti-hCD20-CAR-expressing T cells, the anti-hCD20 CAR-IL-7/CCL19-expressing T cells, the anti-hCD20-CAR-anti-PD-1-antibody-expressing T cells, or the anti-hCD20-CAR-IL-7/CCL19-anti-PD-1-antibody-expressing T cells was collected after 2 days of cultivation, and the concentrations of […] in the conditioned medium were measured using ELISA. In the ELISA, a recombinant fusion protein including mouse PD-1 and immunoglobulin Fc portion was immobilized in the wells, PD-1 scFv was captured thereto, and an anti-FLAG tag or anti-6xHis tag was used for detection. In FIG. 15, the average value over the triplicate wells as well as the standard deviation thereof are indicated in the graph. In each graph, data are arranged from the left to the right: the untransduced T cells (uninf.), the anti-hCD20-CAR-expressing T cells (conv.), the anti-hCD20 CAR-IL-7/CCL19-expressing T cells (7×19), the anti-hCD20-CAR-anti-PD-1-antibody-expressing T cells (conv./PD-1), the anti-hCD20-CAR-IL-7/CCL19-anti-PD-1-antibody-expressing T cells (7×19/PD-1), and a culture medium only (data obtained by performing the same treatment on the culture liquid to which T cells were not added).
Background: ELISA stands for enzyme-linked immunosorbent assay.

The results in this text go back to patent publication US20220401480A1 (NOILE IMMUNE BIOTECH, published 2022).

B1: anti-mPD-1 scFv (anti-mouse-PD-1 scFv with FLAG tag and His tag, secreted by transduced mouse T cells) (scFv)
scFv: QFVLTQPKTVSESLGRTVTISCKRSSGSVGDYYVSWHQQRFGSSPKTVIYLDDERPSGVPKRFSGSIDSSSNSASLTITDLQTDDEADYFCLSYDSNNHFVFGSGTHLTVLGGGGSGGGGSGGGGSEVQLVESGGGLAQPGKSLKLSCEASGFTFSDYGMNWFRQAPGKGLEWVAYISSGSNKITYADTVKGRFTVSRDNGKNQLFLQMNNLKSEDTAIYYCVDSGFNSYSDVWGQGIQVTVSSDYKDDDDKFVEHHHHHH
notes: It was tested as conditioned medium and was not purified; also called anti-PD-1 scFv
Consider B1, for which the binding result is given as “binds”.
